The term Km denotes the concentration of substrate that gives half-maximal velocity. Broadly, the Vmax is the rate approached at saturating substrate.

Substrate in the series: O=S(O)(O)=S
Nature of the series: purified protein. The series is classed as biochemical, Pieris rapae. As to conditions: 50 mM KCN, Tris-HCl pH 8.5, 30 °C.

B1: PrTST2 (Pieris rapae) (protein)
chain: MGNSNSNSTMVDPVRFVSYEDMLKVIHEPEKVIIDVRNPDEIESTGKIPSSINIPLNTVSDTLASMPDDEFLKQYQRPKPSASDELIFYCKSGRRSQEALDKALKLGFSNSKSYLGSWEDWSSKQK
notes: active-site Cys-90
With B1, the Km was determined as 840 ± 270 µM and the Vmax worked out at 14.2 µmol/min/mg.

The record behind these values is article PMC6050342, “Molecular identification and characterization of rhodaneses from the insect herbivore Pieris rapae” (Scientific Reports, 2018).
